Results taken from publication PMC4860839, “Structures of the APC–ARM domain in complexes with discrete Amer1/WTX fragments reveal that it uses a consensus mode to recognize its binding partners” (Cell Discovery, 2015).
Each block holds one molecule with its values, some of them ahead of it.

B1: Amer1-A4 peptide (residues 365–375) (peptide)
peptide: H-YQGGGEEMALP-OH
notes: human Amer1/WTX residues 365–375; also called hAmer1-A4 (365–375); source: synthetic peptide (Appeptide Company), HPLC purified
B2: GST-Amer1 (766–823), core A3 (domain or fragment, human, UniProt Q5JTC6 766-823, looked up)
chain: TVSFSQALVEFTSNGNLFSSMSCSSDSDSSFTQNLPELPPMVTFDIADVERDGEGKCE
notes: human Amer1/WTX residues 766–823; not shown: GST, N-terminal, kept
B3: APC–ARM, human APC (407–775), N-terminally His-tagged (domain or fragment, UniProt P25054 407-775, looked up)
chain: LHLLEQIRAYCETCWEWQEAHEPGMDQDKNPMPAPVEHQICPAVCVLMKLSFDEEHRHAMNELGGLQAIAELLQVDCEMYGLTNDHYSITLRRYAGMALTNLTFGDVANKATLCSMKGCMRALVAQLKSESEDLQQVIASVLRNLSWRADVNSKKTLREVGSVKALMECALEVKKESTLKSVLSALWNLSAHCTENKADICAVDGALAFLVGTLTYRSQTNTLAIIESGGGILRNVSSLIATNEDHRQILRENNCLQTLLQHLKSHSLTIVSNACGTLWNLSARNPKDQEALWDMGAVSMLKNLIHSKHKMIAMGSAAALRNLMANRPAKYKDANIMSPGSSLPSLHVRKQKALEAELDAQHLSETFDN
notes: human APC, ARM domain, residues 407–775; source: E. coli BL21(DE3), purified (Ni2+-NTA, Superdex200)
B4: Amer1 (766–823, Δ778–794) (domain or fragment, human, UniProt Q5JTC6 766-823, looked up)
chain: TVSFSQALVEFTSFTQNLPELPPMVTFDIADVERDGEGKCE
notes: human Amer1/WTX residues 766–823 with residues 778–794 deleted; not shown: GST, N-terminal, kept
B5: Amer1-A1 peptide (residues 325–335) (peptide)
peptide: H-LTGCGDIIAEQ-OH
notes: human Amer1/WTX residues 325–335; also called hAmer1-A1 (325–335); source: synthetic peptide (Appeptide Company), HPLC purified
B6: APC–ARM, human APC (407–751), N-terminally His-tagged (domain or fragment, UniProt P25054 407-751, looked up)
chain: LHLLEQIRAYCETCWEWQEAHEPGMDQDKNPMPAPVEHQICPAVCVLMKLSFDEEHRHAMNELGGLQAIAELLQVDCEMYGLTNDHYSITLRRYAGMALTNLTFGDVANKATLCSMKGCMRALVAQLKSESEDLQQVIASVLRNLSWRADVNSKKTLREVGSVKALMECALEVKKESTLKSVLSALWNLSAHCTENKADICAVDGALAFLVGTLTYRSQTNTLAIIESGGGILRNVSSLIATNEDHRQILRENNCLQTLLQHLKSHSLTIVSNACGTLWNLSARNPKDQEALWDMGAVSMLKNLIHSKHKMIAMGSAAALRNLMANRPAKYKDANIMSPGSSLPS
notes: human APC, armadillo repeat (ARM) domain, residues 407–751; source: E. coli BL21(DE3), purified (Ni2+-NTA, Superdex200)
B7: GST-Amer1 (325–335), core A1 (domain or fragment, human)
chain: LTGCGDIIAEQ
notes: human Amer1/WTX residues 325–335; The results call the ITC samples peptides; the ITC methods name GST-Amer1 proteins; also called Amer1-A1; not shown: GST, N-terminal, kept
B8: GST-Amer1 (280–368), full A1 (domain or fragment, human, UniProt Q5JTC6 280-368, looked up)
chain: SLEEPHSPETGEKVVAGEVNPPNGPVGDPLSLLFGDVTSLKSFDSLTGCGDIIAEQDMDSMTDSMASGGQRANRDGTKRSSCLVTYQGG
notes: the methods print full A1: 280–364; also called full Amer1-A1; not shown: GST, N-terminal, kept
B9: GST-Amer1 (380–531), full A2 (domain or fragment, human, UniProt Q5JTC6 380-531, looked up)
chain: EEEEEEEEVELEEEEEEVKEEEEDDDLEYLWETAQMYPRPNMNLGYHPTTSPGHHGYMLLDPVRSYPGLAPGELLTPQSDQQESAPNSDEGYYDSTTPGFEDDSGEALGLVRRDCLPRDSYSGDALYEFYEPDDSLENSPPGDDCLYDLHGR
notes: the methods print full A2: 400–531; also called full Amer1-A2; not shown: GST, N-terminal, kept
B10: GST-Amer1 (496–508), core A2 (domain or fragment, human)
chain: PRDSYSGDALYEF
notes: human Amer1/WTX residues 496–508; The results call the ITC samples peptides; the ITC methods name GST-Amer1 proteins; also called Amer1-A2; not shown: GST, N-terminal, kept
B11: GST-Amer1 (365–375), A4 (domain or fragment, human)
chain: YQGGGEEMALP
notes: human Amer1/WTX residues 365–375; also called Amer1-A4; not shown: GST, N-terminal, kept
B12: GST-Amer1 (716–834), A3 (domain or fragment, human, UniProt Q5JTC6 716-834, looked up)
chain: TCLMQLFQSDAMFEPDMQEANFGGSPRRAYPTYSPPEDPEEEEVEKEGNATVSFSQALVEFTSNGNLFSSMSCSSDSDSSFTQNLPELPPMVTFDIADVERDGEGKCEENPEFHNDEDL
notes: human Amer1/WTX residues 716–834; The methods list only A3: 766–823 among the GST constructs; not shown: GST, N-terminal, kept
B13: Amer1-A2 peptide (residues 496–508) (peptide)
peptide: H-PRDSYSGDALYEF-OH
notes: human Amer1/WTX residues 496–508; also called hAmer1-A2 (496–508); source: synthetic peptide (Appeptide Company), HPLC purified

Columns and labels:
[1] = molecular target: FL Amer1/WTX (pcDNA-Flag-Amer1) (not stated (human or mouse cDNA cloned)) (UniProt Q5JTC6); assay: co-IP; HEK293T cells transiently transfected; immunoprecipitation with anti-GFP or anti-FLAG M2 beads, western blot
FL Amer1/WTX (pcDNA-Flag-Amer1) (not stated (human or mouse cDNA cloned)), sequence (Q5JTC6 whole entry): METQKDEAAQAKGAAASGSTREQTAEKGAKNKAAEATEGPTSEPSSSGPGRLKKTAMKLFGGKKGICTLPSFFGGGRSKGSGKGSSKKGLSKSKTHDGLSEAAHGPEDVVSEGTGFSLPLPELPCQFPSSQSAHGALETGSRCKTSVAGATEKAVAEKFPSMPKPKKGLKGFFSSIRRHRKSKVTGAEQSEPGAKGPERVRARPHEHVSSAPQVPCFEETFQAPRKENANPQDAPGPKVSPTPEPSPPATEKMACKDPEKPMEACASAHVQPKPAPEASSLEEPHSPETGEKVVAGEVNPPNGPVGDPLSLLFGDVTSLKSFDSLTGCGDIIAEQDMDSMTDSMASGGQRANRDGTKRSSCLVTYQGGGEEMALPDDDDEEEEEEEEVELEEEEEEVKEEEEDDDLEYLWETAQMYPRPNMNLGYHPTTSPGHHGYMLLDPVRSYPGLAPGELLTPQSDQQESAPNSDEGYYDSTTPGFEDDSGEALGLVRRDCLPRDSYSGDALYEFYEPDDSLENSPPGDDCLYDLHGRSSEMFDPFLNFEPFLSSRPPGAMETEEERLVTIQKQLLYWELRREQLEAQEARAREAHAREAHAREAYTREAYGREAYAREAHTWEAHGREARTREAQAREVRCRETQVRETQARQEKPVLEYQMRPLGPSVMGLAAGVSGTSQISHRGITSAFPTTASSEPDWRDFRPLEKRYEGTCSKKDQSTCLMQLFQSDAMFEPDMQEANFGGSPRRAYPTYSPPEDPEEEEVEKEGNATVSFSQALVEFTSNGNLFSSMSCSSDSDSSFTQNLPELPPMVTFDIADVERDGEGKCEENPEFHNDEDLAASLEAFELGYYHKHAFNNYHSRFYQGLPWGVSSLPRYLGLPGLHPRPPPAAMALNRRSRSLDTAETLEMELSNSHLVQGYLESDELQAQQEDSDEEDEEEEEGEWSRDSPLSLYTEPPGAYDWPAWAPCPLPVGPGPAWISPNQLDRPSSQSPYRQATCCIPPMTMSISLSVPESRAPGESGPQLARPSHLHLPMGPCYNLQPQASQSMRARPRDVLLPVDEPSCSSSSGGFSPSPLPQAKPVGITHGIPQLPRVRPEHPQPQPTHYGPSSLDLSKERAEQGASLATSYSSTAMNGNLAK

[2] = molecular target: B6; assay: crystal structure; APC–ARM mixed with synthetic Amer1 peptide at 1:1.5; hanging drop, 14 °C; conditions: both partners purified
[3] = molecular target: B3; assay: ITC; ITC200, 25 °C; 50 mM HEPES pH 7.5, 300 mM NaCl, 1 mM EDTA; typically 200 μM APC–ARM injected into 20 μM GST-Amer1 fragment, or 1 mM GST-Amer1 fragment into 80 μM APC–ARM; single-site model; conditions: both partners purified
[4] = molecular target: B4; assay: as above; conditions: both partners purified
[5] = molecular target: B2; assay: as above; conditions: both partners purified
GST-Amer1 (716–834), A3 = molecular target: B12; assay: as above; conditions: both partners purified
[6] = molecular target: B10; assay: as above; conditions: both partners purified
GST-Amer1 (365–375), A4 = molecular target: B11; assay: as above; conditions: both partners purified
[7] = molecular target: B9; assay: as above; conditions: both partners purified
[8] = molecular target: B8; assay: as above; conditions: both partners purified
[9] = molecular target: B7; assay: as above; conditions: both partners purified
[10] = molecular target: B6; assay: as above; conditions: both partners purified

reduction of association against wild type APC–ARM (densitometry) [1]: 60%
Molecule: pEGFP-APC–ARM-K516E/M717K double mutant (domain or fragment)

Molecule: B1
binding result [2]: binds

Molecule: B2
Kd [3]: 270 ± 70 nM

Molecule: B3
dH [4]: -1.39 ± 0.06 kcal/mol | stoichiometry N [4]: 1.02 ± 0.03 Amer1/APC ratio | dH [5]: -1.82 ± 0.04 kcal/mol | stoichiometry N [5]: 1 ± 0.02 Amer1/APC ratio | dH (GST-Amer1 (716–834), A3): -1.82 ± 0.06 kcal/mol | stoichiometry N (GST-Amer1 (716–834), A3): 0.99 ± 0.02 Amer1/APC ratio

Molecule: B4
Kd [3]: 220 ± 110 nM

Molecule: B5
binding result [2]: binds

Molecule: B6
dH [6]: -5.2 ± 0.2 kcal/mol | stoichiometry N [6]: 1.08 ± 0.02 Amer1/APC ratio | dH (GST-Amer1 (365–375), A4): -3.5 ± 0.1 kcal/mol | stoichiometry N (GST-Amer1 (365–375), A4): 0.95 ± 0.02 Amer1/APC ratio | dH [7]: -3.5 ± 0.1 kcal/mol | stoichiometry N [7]: 0.92 ± 0.02 Amer1/APC ratio | dH [8]: -1.12 ± 0.55 kcal/mol | stoichiometry N [8]: 0.97 ± 0.39 Amer1/APC ratio | dH [9]: -0.9 ± 0.1 kcal/mol | stoichiometry N [9]: 0.9 ± 0.08 Amer1/APC ratio

Molecule: B7
Kd [10]: 14400 ± 4300 nM

Molecule: B8
Kd [10]: 8000 ± 4100 nM

Molecule: B9
Kd [10]: 500 ± 100 nM

Molecule: B10
Kd [10]: 1100 ± 200 nM

Molecule: B11
Kd [10]: 2000 ± 300 nM

Molecule: B12
Kd [3]: 130 ± 60 nM

Molecule: B13
binding result [2]: binds
